Results on 16 sequences are retold here after the nanobody polyreactivity screen of Harvey et al. (2022).

The series in a line: yeast display, Sf9 membrane polyspecificity reagent, FACS + sequencing; frameworks hold sequencing errors. The method, boiled down: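 Galactose-induced (36–48 hours) yeast carrying a synthetic nanobody display library were exposed to 10% biotinylated, detergent-solubilized Sf9 membrane reagent at 4 °C for 1 hour. FACS followed streptavidin microbead enrichment, using low and high (top ~1%) gates for expression (anti-HA) and reagent binding (streptavidin). Colony PCR, MiSeq 2 × 250 sequencing and CDR-length filtering followed. Labels for polyreactivity reflect the gate of origin.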
With “QVQLVESGGGLVQAGGSLRLSCAASGRIFGLYAMGWYRQAPGKERELVAAISWSGGRTYYADSVKGRFTISRDNAKNNVYLQMNSLKPEDTAVYYCAARSYYRSQYGFDYWGQGTQVTVSS”, the “polyreactivity (PSR sort gate)” value is on record as “high polyreactivity”.

With “QVQLVESGGGLVQAGGSLRLSCAASGSTFRVYAMGWYRQAPGTERELVATINVSGGSTYYADSVKGRFTISRDNAKNTVYLQMNSLKPEDTAVYYCAKEDGAYGYPFDYWGQGTQVTVSS”, the “polyreactivity (PSR sort gate)” value is “low polyreactivity”. In the case of “QVQLVESGGGLVQAGGRLRLSCAASGFIFAWYAMGWYRQAPGKEMELVAAITWSAGSTYYADSVKGRFTISRDNAKNTVFLQMNSLKPEVTAVYYCAADAWYYSIYRGGDFWGQGTQVTVSS” it was “low polyreactivity”; in that of “QVQLVESGGGIVQAGGSLRLSCAASGFTLWLNAMGWYRQAPGKERELVAAITTSDDGTYYADSVKGRFTISRDNAKNTVYLQMNSLKPEDTAVYYCASDYYSVLYDYWGQGTQLTVSS”, “low polyreactivity”.

In the case of “QVQLVESGGGLVQAGGSLRLSCATSGRTFSQYAMGWYRQAPGKERELVAVISGSGGSTYYADSVKGRFTISRDNAKNTVYLQINSLKPEDTAVYYCAKRATSWHQYDYWGQGTQVTVSS”, the “polyreactivity (PSR sort gate)” value was “low polyreactivity”.

Turning to “QVHLVESGGGLVQAGGSLRLSCAASGSTFYYYAMGWYRQAPGKERELVAVITSGGSTNYADSVKGRFTISRDYAKNSVYLQMNSLKPEDTAVYYCNVGPSTYYQYDYWGQGTQVTVSS”, the “polyreactivity (PSR sort gate)” value is “high polyreactivity”. The result for “QVQLVESGGGLVQAGGSLRLSCAASGSIFYIYAMGWYRQAPGKERELVAAISWRTSSTYYADSVKGRFTISRDNAKNTVYLQMNSLKPEDTAVYYCAAETWLGSWRQVGMDYWGQGTQVTVSS” reads “high polyreactivity”; that for “QVQLVESGGGLVQAGGSLRLSCAASGRTFYANAMGWYRQAPGKERELVAAISRGGRTYYADSVKGRFTISRDNAKNTVYLQMNIMIPEDTSVYYCAARHTTTAVYSYYRADGGYWGQGTQVTVSS”, “low polyreactivity”; that for “QVQLVESGGGLVQAGGSLRLSCAASGSIFRLYTMGWYRQAPGKERELVAAISQSGGRTYYADSVKGRFTISRDNAKNTVYLQMNSLNPEDTAVYYCNAVGPYRPYGGQGAPYDYWGQGTQVTVSS”, “high polyreactivity”.

On to “QVQLVESGRGLVQAGGSLRLSCAASGRTVWVYTMGWYRQAPGKERELVAAITLSGGSTYYADSVKGRFTISRDNAKNTVYLQMNSLKPEDTAVYYSNARPYYYTYRHSQYYYWGQGTQVTVSS”, for which the “polyreactivity (PSR sort gate)” value is “high polyreactivity”.

As for “QVQLVESGGGLVQAGGSLRLSCAASGRIRFYARGWYRQAPGKEREFVASITRSGGSTYYADSVKGRFTISRDNAKYTVYLQMNSLKPEDTAVYYCAADDYFHDDYWGQGTQVTVSS”, the “polyreactivity (PSR sort gate)” value is listed as “high polyreactivity”. The result for “QVQLVESGGGLVQAGGSLRLTCAASGFIFTYPNAKGWNIQAPGKERELVAAISWRGGGTYYADSVKGRFTISRDNAKNTVYLQMNSLKPEDTAVYYCADYVPAPRRTYNYWGQGTQVTVSS” reads “high polyreactivity”.

In the case of “QVQLVESGGGLVHAGGSLRLSCAASGRTFYANAMGWYRQAPGKERELVAAISSRSGTTHYADSEKGRFTISRDNAKNSVYLQMNSLKPEETAVYYCAVRYYRRRYDYWGQGTQVTVSS”, the “polyreactivity (PSR sort gate)” value was “low polyreactivity”. The result for “QVQLVESGGGLVQAGGSLRLSCAASGRTFGYNVMGWYRQAPGKARELVAGIRYSGGSTYYADSVKGRFTISRDNAKNTVYLQMNSLKPEDTAVYYCHAVDRNQYDYWGQGTQVTVSS” reads “high polyreactivity”; that for “QVQLVESGGGLVQAGGSLRLSCAASGSNFLKNAMGWYRQAPGKERELVAAITSGGSTYYADSVKGRFTISRDNAKNTVYLQMNSLKPEDTAVYYCADETSPSWYTWVTYDYWGQGTQVTVSS”, “high polyreactivity”; that for “QVHLLESGGGLFQPGGSLRLSCAASGRIFTSYAMGWYRPAPGKESELVAAISWGGGRTYYADSVKGRYTISRDNAKNTVYLQMNSVKPEDTAVYYCAALIADRDSPYDYWGQGTQVTVSS”, “high polyreactivity”.
